Source: US20030059461A1 (SIBTECH, published 2003)

How the values were obtained:
soluble KDR-Fc receptor = target: T1, soluble KDR-Fc receptor (human, UniProt P35968 20-764, limits assumed); assay: competition with 125I-VEGF165 for soluble KDR-Fc
T1 construct: extracellular domain; also called soluble, secreted extracellular domain of the KDR/flk-1 receptor fused to the Fc portion of human IgG; not shown: Fc portion of human IgG

[1] = target: T2, KDR/flk-1 receptor on 293/KDR or PAE/KDR cells (UniProt P35968 20-1356, limits assumed); assay: as described in Example 1.G.2 (binding to KDR/flk-1)
T2 construct: whole, on cells; also called cellular KDR/flk-1 receptors
T2 sequence (P35968 20-1356 limits assumed): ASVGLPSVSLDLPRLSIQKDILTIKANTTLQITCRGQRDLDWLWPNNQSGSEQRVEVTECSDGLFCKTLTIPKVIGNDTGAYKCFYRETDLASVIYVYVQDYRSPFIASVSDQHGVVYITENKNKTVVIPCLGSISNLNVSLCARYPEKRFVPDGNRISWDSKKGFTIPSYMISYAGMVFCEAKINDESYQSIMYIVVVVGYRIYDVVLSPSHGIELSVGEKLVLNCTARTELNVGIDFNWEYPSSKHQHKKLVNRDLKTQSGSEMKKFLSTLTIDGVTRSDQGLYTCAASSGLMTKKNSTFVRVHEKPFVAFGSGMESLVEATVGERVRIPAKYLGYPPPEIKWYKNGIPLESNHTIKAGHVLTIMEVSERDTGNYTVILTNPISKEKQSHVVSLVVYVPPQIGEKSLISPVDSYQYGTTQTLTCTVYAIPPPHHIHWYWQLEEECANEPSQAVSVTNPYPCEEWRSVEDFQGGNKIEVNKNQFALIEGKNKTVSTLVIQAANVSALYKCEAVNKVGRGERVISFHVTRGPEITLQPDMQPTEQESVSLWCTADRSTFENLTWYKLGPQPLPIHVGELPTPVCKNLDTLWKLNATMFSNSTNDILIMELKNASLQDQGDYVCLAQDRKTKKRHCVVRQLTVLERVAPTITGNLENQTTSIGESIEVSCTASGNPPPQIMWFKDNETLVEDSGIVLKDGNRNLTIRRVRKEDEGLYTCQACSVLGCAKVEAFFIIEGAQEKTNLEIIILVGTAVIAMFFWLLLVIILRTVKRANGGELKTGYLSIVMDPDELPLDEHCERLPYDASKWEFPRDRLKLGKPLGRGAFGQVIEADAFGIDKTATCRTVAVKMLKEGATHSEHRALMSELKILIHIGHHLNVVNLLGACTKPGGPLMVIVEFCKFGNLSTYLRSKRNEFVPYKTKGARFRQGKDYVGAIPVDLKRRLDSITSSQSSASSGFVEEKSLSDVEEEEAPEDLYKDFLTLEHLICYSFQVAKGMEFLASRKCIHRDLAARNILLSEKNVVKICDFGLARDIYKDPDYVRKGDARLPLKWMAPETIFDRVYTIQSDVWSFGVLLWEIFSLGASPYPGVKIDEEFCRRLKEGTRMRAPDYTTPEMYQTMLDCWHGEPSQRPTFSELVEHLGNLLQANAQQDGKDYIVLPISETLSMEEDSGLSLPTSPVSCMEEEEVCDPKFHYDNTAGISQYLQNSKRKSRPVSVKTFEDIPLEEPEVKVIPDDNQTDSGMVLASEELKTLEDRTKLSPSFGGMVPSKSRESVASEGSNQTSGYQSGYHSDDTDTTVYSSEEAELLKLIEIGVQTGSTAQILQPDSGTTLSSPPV

[2] = target: T2, KDR/flk-1 receptor on 293/KDR or …; assay: Scatchard analysis on 293/KDR cells
[3] = target: T2, KDR/flk-1 receptor on 293/KDR or …; assay: Scatchard analysis of 125I-labelled protein binding to 293/KDR cells

T1 sequence (P35968 20-764 limits assumed): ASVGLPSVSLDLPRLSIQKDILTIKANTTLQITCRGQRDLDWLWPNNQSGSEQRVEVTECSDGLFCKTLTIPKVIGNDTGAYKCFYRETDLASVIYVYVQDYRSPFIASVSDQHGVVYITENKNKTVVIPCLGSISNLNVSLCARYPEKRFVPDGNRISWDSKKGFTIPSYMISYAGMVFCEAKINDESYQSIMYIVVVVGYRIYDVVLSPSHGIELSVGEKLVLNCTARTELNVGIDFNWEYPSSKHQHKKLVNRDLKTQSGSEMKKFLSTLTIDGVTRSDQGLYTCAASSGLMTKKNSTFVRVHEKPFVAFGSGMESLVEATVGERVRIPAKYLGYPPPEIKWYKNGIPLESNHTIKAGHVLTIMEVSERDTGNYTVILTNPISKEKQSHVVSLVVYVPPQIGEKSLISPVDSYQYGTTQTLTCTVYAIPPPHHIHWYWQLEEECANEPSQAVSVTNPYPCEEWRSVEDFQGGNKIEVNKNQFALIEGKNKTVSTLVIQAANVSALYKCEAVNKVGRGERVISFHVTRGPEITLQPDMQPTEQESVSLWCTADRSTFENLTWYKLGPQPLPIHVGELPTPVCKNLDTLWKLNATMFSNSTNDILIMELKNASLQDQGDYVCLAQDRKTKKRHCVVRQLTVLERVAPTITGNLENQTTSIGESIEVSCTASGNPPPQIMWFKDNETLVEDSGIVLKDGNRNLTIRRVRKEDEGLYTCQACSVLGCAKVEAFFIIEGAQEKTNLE

binding result (soluble KDR-Fc receptor) | binding result [1] | fold lower affinity than VEGF165 [2] | Kd [3] | Binder
binds | binds |  |  | txFVEGF189 fusion protein (ligand, human, UniProt P15692-2 27-215, looked up, not shown: large carriers, mature; also called txVEGF189) APMAEGGGQNHHEVVKFMDVYQRSYCHPIETLVDIFQEYPDEIEYIFKPSCVPLMRCGGCCNDEGLECVPTEESNITMQIMRIKPHQGQHIGEMSFLQHNKCECRPKKDRARQEKKSVRGKGKGQKRKRKKSRYKSWSVPCGPCSERRKHLFVQDPQTCKCSCKNTDSRCKARQLELNERTCRCDKPRR
 |  | ~10 fold | 3.5 nM | txFVEGF121 fusion protein (ligand, human, UniProt P15692-9 27-147, looked up, not shown: large carriers, 125I label in the Scatchard experiment, mature; also called txVEGF121) APMAEGGGQNHHEVVKFMDVYQRSYCHPIETLVDIFQEYPDEIEYIFKPSCVPLMRCGGCCNDEGLECVPTEESNITMQIMRIKPHQGQHIGEMSFLQHNKCECRPKKDRARQEKCDKPRR
